Data from PMC10063552, “Utilizing genetic code expansion to modify N-TIMP2 specificity towards MMP-2, MMP-9, and MMP-14” (Scientific Reports, 2023).

How the values were obtained:
Experiment in all cases: enzyme inhibition assay (cleavage of a chromogenic substrate, fit to Morrison's tight binding equation); MMP-2ACT (0.6 nM), MMP-9CAT (3 nM) or MMP-14CAT (1 nM) incubated with 0-25 nM N-TIMP2 variant in 50 mM HEPES, 10 mM CaCl2, 0.05% Brij-35, 1 mM DTNB, pH 7.5, 1 h at 37 °C; then 100 µM chromogenic substrate, absorbance at 412 nm at 37 °C; Ki from three independent experiments
Conditions in all cases: both partners purified
[1] = biological target: T1, human MMP-14 catalytic domain (MMP-14CAT) (human, UniProt P50281 112-292)
T1 construct: Matrix metalloproteinase-14 (MMP-14), human, catalytic domain, residues 112-292

[2] = biological target: T2, activated MMP-2 (MMP-2ACT) (human, APMA-activated in vitro (propeptide 30-109 removed); catalytic Zn2+, structural Zn2+ and Ca2+ ions. Limits are not printed: full-length active chain taken from the UniProt feature. The tables label it)
T2 chain: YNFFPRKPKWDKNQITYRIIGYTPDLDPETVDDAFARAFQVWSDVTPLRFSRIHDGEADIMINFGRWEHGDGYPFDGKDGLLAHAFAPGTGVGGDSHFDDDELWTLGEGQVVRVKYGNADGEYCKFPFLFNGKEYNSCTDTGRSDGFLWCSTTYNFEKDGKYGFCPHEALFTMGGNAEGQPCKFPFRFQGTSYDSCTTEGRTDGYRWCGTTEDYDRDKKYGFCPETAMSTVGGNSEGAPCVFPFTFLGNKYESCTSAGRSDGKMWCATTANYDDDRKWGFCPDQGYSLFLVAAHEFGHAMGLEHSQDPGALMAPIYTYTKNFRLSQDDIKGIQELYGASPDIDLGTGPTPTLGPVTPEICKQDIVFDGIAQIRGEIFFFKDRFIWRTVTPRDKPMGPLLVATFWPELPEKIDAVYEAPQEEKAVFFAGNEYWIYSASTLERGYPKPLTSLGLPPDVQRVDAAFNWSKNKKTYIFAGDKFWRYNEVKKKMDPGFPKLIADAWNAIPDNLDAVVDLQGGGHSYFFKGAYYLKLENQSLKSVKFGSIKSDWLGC

[3] = biological target: T3, human MMP-9 catalytic domain (MMP-9CAT) (human, UniProt P14780 107-215; P14780 391-443)
T3 construct: Matrix metalloproteinase-9 (MMP-9), human, catalytic domain, first stretch, residues 107-215; Matrix metalloproteinase-9 (MMP-9), human, catalytic domain, second stretch, residues 391-443 (residues 216-390 left out); no linker between the two stretches is stated
T3 chain (looked up): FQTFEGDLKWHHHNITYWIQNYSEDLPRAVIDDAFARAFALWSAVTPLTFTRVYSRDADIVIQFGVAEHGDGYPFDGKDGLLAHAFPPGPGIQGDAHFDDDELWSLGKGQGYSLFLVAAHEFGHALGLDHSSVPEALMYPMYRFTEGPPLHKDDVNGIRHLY

B1: N-terminal domain of TIMP2 (N-TIMP2), wild type (domain or fragment, human, UniProt P16035 27-153, looked up)
chain: CSCSPVHPQQAFCNADVVIRAKAVSEKEVDSGNDIYGNPIKRIQYEIKQIKMFKGPEKDIEFIYTAPSSAVCGVSLDVGGKKEYLIAGKAEGDGKMHITLCDFIVPWDTLSTTQKKSLNHRYQMGCE
notes: numbers count on: the mature protein (Cys1 is the N-terminal residue); Cloned into the pMECS vector; also called wild-type N-TIMP2; parental N-TIMP2; source: E. coli WK6, periplasmic extract, purified (Ni-NTA)
Binder B1 has a Ki [1] of 0.711 nM, a Ki [2] of 0.233 nM and a Ki [3] of 0.322 nM.
